Test results: paper PMC2566588

Target: CXCR4CFP (human) (UniProt P61073)
Experiment: FRET or BRET; sensitized-emission FRET imaging as above; cells treated with chemokines (CCL3/MIP1α, CCL5/RANTES or CXCL12/SDF-1) for 20 min before imaging; N-FRET on the plasma membrane against the unstimulated control

CXCR4CFP (human), sequence (P61073 whole entry): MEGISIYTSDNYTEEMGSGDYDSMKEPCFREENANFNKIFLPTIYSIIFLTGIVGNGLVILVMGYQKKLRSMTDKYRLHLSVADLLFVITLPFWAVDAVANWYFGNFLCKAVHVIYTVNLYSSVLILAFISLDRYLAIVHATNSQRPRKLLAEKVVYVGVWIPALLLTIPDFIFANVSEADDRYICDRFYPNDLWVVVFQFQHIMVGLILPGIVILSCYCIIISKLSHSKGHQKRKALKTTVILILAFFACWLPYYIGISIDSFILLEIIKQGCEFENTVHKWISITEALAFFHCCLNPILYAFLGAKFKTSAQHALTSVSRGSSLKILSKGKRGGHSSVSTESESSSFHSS
CCR5YFP, P51681 1-352 (receptor; other documents disagree on this pair), sequence (P51681 whole entry): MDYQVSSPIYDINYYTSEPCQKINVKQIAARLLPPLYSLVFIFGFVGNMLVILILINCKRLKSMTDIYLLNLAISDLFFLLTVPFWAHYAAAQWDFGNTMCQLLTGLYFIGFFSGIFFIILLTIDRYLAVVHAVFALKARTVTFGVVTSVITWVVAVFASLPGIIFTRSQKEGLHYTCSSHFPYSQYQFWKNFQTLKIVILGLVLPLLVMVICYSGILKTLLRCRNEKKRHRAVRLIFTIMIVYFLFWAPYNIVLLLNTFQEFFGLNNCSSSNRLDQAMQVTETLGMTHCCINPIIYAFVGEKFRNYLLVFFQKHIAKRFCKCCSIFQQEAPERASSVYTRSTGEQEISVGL

## CCR5YFP, P51681 1-352 (receptor; other documents disagree on this pair)
  increase of N-FRET with CCL3/MIP1α against the unstimulated control: 30%
  increase of N-FRET with CCL5/RANTES against the unstimulated control: 30%
